Test results taken from patent US8871909B2, “Antibodies inhibiting c-Met dimerization and uses thereof” (Pierre Fabre Medicament, priority 2007, dated 2014).
Positions count from the first letter of the chain named. Each block holds one molecule with its values, some of them ahead of it.

Tests used:
NCI-H441 [1] = assay: In vivo combination of 224G11 and Navelbine on NCI-H441 xenograft model (Example 19); set-up: species or system Athymic nude mice; conditions: day 41 post first injection
Experimental: NCI-H441 cells from ATCC were routinely cultured in RPMI 1640 medium, 10% FCS, 1% L-Glutamine. Cells were split two days before engraftment being in exponential phase of growth. Ten million NCI-H441 cells were engrafted to Athymic nude mice. […] Mice were treated i.p. either with a loading dose of 2 mg of 224G11 Mab/mouse and then twice a week with 1 mg of antibody/mouse until Day 38 or with 3 injections of Navelbine® (D5, D12, D19) at 8 mg/kg. A third group administered with the combine treatment was also included. Navelbine® was given by i.p. injections. Tumor volume was measured twice a week and calculated by the formula: π/6×length×width×height and animal weights were monitored every day over the period of Navelbine® treatment. Statistical analysis was performed at each measured time using either a t-test or a Mann-Whitney test. […] Results are represented in FIG. 45.

HGF-cMet = biological target: T1, HGF-cMet (Homo sapiens, UniProt P08581); assay: HGF-cMet competition assay (ELISA); assay type: binding; conditions: at high antibody concentration, purified murine antibodies
T1 construct: recombinant c-Met-Extra-Cellular Domain (ECD) fused to an human IgG Fc domain
Source text: FIG. 54: HGF-cMet competition assay. In this ELISA-based assay, recombinant Fc-cMET residual binding to plastic coated HGF in the presence of purified murine monoclonal antibodies 11E1, 224G11 and 227H1 was detected with […] and measured at 450 nm;
FIG. 58: HGF-cMet competition assay of 227H1 murine and recombinant antibodies. In this ELISA-based assay, recombinant Fc-cMet residual binding to plastic coated HGF in the presence of the different forms of the 227H1 antibody was detected with a biotinylated unrelated anti-cMet antibody. Purified murine 227H1 monoclonal antibody, chimeric and HZ4VH-derived humanized 227H1-derived recombinant antibodies were tested and compared for their abilities to compete with HGF-cMet binding when measured at 450 nm;
Humanization of the anti-cMet antibodies were performed independently for each chain and sequentially, regarding to the analysed amino acids in each variable domain. The humanization process was evaluated in a first attempt in an ELISA-based binding assay to recombinant Fc-cMet; binding activities the humanized antibodies being compared to the recombinant chimeric antibody. In a second attempt, anti-cMet humanized antibodies were evaluated for their abilities to displace the Fc-cMet binding onto plastic-coated recombinant HGF; this competition assay allowing the direct comparison of murine, chimeric and humanized versions of the anti-cMet antibodies.
These two assays were used to characterize the recombinant chimeric and humanized versions of the murine anti-cMet antibodies. To this end, briefly, anti-cMet variable domains, either murine or humanized, were cloned into LONZA's pCONplus expression vectors series and recombinant IgG1/κ-derived antibodies were expressed in CHO cells. […] Both direct binding and HGF-competition assays were assessed to better characterize recombinant chimeric or humanized versions.

c-Met = assay: BRET analysis of c-Met dimerization on c-Met transfected CHO cells; assay type: cell-based; conditions: CHO cells expressing C-Met-Rluc and C-Met-K1100A-YFP, supernatants
Source text: The technology BRET, used in the step iii) of the process, is well known by the person skill in the art and will be detailed in the following examples. More particularly, BRET (Bioluminescence Resonance Energy Transfer) is a non-radiative energy transfer occurring between a bioluminescent donor (Renilla Luciferase (Rluc)) and a fluorescent acceptor, a mutant of GFP (Green Fluorescent Protein) or YFP (Yellow fluorescent protein). In the present case EYFP (Enhanced Yellow Fluorescent Protein) was used. The efficacy of transfer depends on the orientation and the distance between the donor and the acceptor. Then, the energy transfer can occur only if the two molecules are in close proximity (1-10 nm). This property is used to generate protein-protein interaction assays. Indeed, in order to study the interaction between two partners, the first one is genetically fused to the Renilla Luciferase and the second one to the yellow mutant of the GFP. Fusion proteins are generally, but not obligatory, expressed in mammalian cells. In presence of its membrane permeable substrate (coelenterazine), Rluc emits blue light. If the GFP mutant is closer than 10 nm from the Rluc, an energy transfer can occur and an additional yellow signal can be detected. The BRET signal is measured as the ratio between the light emitted by the acceptor and the light emitted by the donor. So the BRET signal will increase as the two fusion proteins are brought into proximity or if a conformational change bring Rluc and GFP mutant closer.
Then antibodies inhibiting at least 50% cell proliferation were evaluated as supernatants by BRET analysis on c-Met transfected cells. For that purpose, CHO stable cell lines expressing C-Met-Rluc or C-Met-Rluc and C-Met-K1100A-YFP were generated. Cells were distributed in white 96 well microplates in DMEM-F12/FBS 5% culture medium one or two days before BRET experiments. Cells were first cultured at 37° C. with CO2 5% in order to allow cell attachment to the plate. Cells were then starved with 200 μl DMEM/well overnight. Immediately prior to the experiment, DMEM was removed and cells quickly washed with PBS. Cells were incubated in PBS in the presence or absence of antibodies to be tested or reference compounds, 10 min at 37° C. prior to the addition of coelenterazine with or without HGF in a final volume of 50 μl. […]
BRET ratio has been defined previously [Angers et al., Proc. Natl. Acad. Sci. USA, 2000, 97:3684-3689] as: [(emission at 530 nm)−(emission at 485 nm)×Cf]/(emission at 485 nm), where Cf corresponds to (emission at 530 nm)/(emission at 485 nm) for cells expressing Rluc fusion protein alone in the same experimental conditions. […] For the sake of readability, results are expressed in milliBRET units (mBU); mBU corresponds to the BRET ratio multiplied by 1000.

A549 cells = assay: Matrigel invasion assay with A549 cells; assay type: cell-based; conditions: A549, Mab 10 μg/ml, basal (no HGF)
Experimental: To evaluate the inhibiting effect of the anti-c-Met antibodies on the invasion process, A549 cells were plated in the upper chamber of BD BioCoat™ Matrigel™ invasion chambers (6.5 mm diameter wells with 8-μm pre size polycarbonate membranes). A459 cells were starved 24 hours before performing the invasion assay. Then 500 000 A549 cells were plated in chemotaxis buffer (DMEM medium, 0.1% BSA, 12 mM Hepes) in the upper well of each chamber, upon the Matrigel coating either with or without the antibody to be tested (final Mab concentration 10 μg/ml). After 1 hour incubation of the plates at 37° C. with 5% CO2, the lower chambers were filled with either growth medium containing 400 ng/ml of rhHGF or with growth medium alone. The chambers were incubated for 48 additional hours at 37° C. with 5% CO2. At the end of this incubation time, cells that remained on upper surface of the filter were gently removed with a cotton swab, cells that migrated to the lower surface of the filter were lysed, stained with CyQuant GR dye buffer (Invitrogen) and counted using a fluorescence reader Berthold Mithras LB940. All conditions were tested as triplicates.

SEMA domain = biological target: T2, SEMA domain (Homo sapiens, UniProt P08581); assay: ELISA recognition of recombinant SEMA domain; assay type: binding
T2 construct: the recombinant c-Met-Fc protein and the recombinant SEMA domain
Experimental: To characterize the pattern of recognition of the 3 selected antibodies, 3 ELISA have been set up with the recombinant c-Met protein, its monomeric fragment (obtained by cleavage of the recombinant c-Met-Fc protein and the recombinant SEMA domain.
To perform these ELISA the human dimeric c-Met protein (R&D sytems, cat#358MT) is coated at the concentration of 0.7 μg/ml in PBS overnight at 4° C. After saturation of the plates (Costar #3690) with a 0.5% gelatin solution 2 hours at 37° C., hybridoma supernatants are incubated 1 hour at 37° C. Once rinsed with PBS, the anti-mouse HRP-antibody (Jackson ImmunoResearch, catalog #115-035-164) is added to each well at a 1/5000 dilution in ELISA buffer (0.1% gelatin/0.05% Tween 20 in PBS) and the plates incubated for 1 hour at 37° C. […] The reaction is left to occur for 5 min at room temperature. The reaction is stopped by the addition of 50 μl/well of a 1 M H2SO4 solution and read on a plate reader at 450 nm. The same kind of protocol was performed on monomeric c-Met and SEMA domain but in that cases proteins were coated at 5 and 3 μg/ml respectively.

BxPC3 cells = assay: In vitro inhibition of BxPC3 proliferation ([3H]thymidine incorporation); assay type: cell-based; conditions: BxPC3, in absence of ligand, antibody alone
Experimental: For that purpose 50 000 BxPC3 cells were plated in 96 well plates in RPMI medium, 2 mM L. Glutamine, without SVF. […] After 3 days, cells were pulsed with 0.5 μCi of [^3H]thymidine for 16 hours. The magnitude of [^3H]thymidine incorporated into trichloroacetic acid-insoluble DNA was quantified by liquid scintillation counting. Results were expressed as raw data to really evaluate the intrinsic agonistic effect of each Mab (FIGS. 2A and 2B).

NCI-H441 [2] = assay: NCI-H441 xenograft model (Example 11)
Source text: The evaluation of anti-c-met antibodies on the in vivo activity of this non autocrine cell line could give some insights about their potency to impact on c-met dimerization.

[3] = biological target: T3, recombinant c-Met-Extra-Cellular Domain (ECD) fused to an human IgG Fc domain (Homo sapiens, UniProt P08581); assay: Determination of affinity constants (KD) by Biacore analysis; assay type: binding; conditions: first column; Fab fragments, 25° C.
T3 construct: recombinant c-Met-Extra-Cellular Domain (ECD) fused to an human IgG Fc domain (R&D Systems) as antigen; purchased R&D Systems
Source text: The binding affinity of purified 11E1 and 224G11 antibodies was investigated by BIAcore X using recombinant c-Met-Extra-Cellular Domain (ECD) fused to an human IgG Fc domain (R&D Systems) as antigen (MW=129 kDa). As both c-Met-Fc fusion proteins and antibodies are bivalent compounds, Fab fragments of mAbs 11E1 and 224G11 (MW=50 kDa) were generated by papain cleavage, purified and used in this assay to avoid interference with avidity parameter. For the assay, an anti-Tag histidine capture antibody was coated on CM5 sensorchips. The running buffer was HBS-EP, the flow rate was 30 μl/min and the test was performed at 25° C. Soluble c-Met (ECD_M1)2-Fc-(HHHHHH)2 antigen was captured on the sensorchip (around 270 RU), and the antibodies to be tested were used in solution as analytes. The sensorship was regenerated using Glycine, HCl pH 1.5 buffer on both flowcells for half a minute.

T3 sequence (P08581 25-932 limits assumed): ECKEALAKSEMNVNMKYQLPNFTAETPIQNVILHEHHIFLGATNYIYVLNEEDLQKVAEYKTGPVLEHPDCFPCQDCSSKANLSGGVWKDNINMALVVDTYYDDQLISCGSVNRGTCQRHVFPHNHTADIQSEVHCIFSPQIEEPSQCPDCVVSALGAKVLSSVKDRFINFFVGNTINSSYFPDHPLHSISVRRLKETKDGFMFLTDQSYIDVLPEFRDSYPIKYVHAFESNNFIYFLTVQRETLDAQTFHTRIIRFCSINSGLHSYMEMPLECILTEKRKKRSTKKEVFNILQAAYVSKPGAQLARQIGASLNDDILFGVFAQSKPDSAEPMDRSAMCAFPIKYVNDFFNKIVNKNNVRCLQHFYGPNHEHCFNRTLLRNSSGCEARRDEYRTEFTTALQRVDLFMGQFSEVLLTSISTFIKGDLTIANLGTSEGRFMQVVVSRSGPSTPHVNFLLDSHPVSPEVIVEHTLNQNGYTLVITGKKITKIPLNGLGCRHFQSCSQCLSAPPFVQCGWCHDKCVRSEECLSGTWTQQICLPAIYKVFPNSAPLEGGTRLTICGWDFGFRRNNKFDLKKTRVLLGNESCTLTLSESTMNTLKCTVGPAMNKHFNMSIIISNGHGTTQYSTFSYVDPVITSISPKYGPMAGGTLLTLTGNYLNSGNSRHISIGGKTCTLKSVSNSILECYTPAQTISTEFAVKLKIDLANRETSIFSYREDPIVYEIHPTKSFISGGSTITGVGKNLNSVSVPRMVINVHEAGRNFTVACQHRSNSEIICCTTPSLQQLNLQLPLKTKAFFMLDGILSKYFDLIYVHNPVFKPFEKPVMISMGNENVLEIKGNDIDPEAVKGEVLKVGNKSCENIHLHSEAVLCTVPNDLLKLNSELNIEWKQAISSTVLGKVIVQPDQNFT
T1 sequence (P08581 25-932 limits assumed): as above
Chain of c-Met (P08581 25-307 limits assumed): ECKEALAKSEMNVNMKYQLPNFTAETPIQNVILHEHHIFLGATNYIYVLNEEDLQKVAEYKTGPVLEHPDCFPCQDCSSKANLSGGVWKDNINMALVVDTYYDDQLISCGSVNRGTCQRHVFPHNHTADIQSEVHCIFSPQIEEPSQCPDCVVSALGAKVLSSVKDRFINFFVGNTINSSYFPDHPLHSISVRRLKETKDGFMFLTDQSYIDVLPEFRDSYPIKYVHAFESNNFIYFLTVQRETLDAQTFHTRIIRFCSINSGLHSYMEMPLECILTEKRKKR
Chain of c-Met (P08581 308-932 limits assumed): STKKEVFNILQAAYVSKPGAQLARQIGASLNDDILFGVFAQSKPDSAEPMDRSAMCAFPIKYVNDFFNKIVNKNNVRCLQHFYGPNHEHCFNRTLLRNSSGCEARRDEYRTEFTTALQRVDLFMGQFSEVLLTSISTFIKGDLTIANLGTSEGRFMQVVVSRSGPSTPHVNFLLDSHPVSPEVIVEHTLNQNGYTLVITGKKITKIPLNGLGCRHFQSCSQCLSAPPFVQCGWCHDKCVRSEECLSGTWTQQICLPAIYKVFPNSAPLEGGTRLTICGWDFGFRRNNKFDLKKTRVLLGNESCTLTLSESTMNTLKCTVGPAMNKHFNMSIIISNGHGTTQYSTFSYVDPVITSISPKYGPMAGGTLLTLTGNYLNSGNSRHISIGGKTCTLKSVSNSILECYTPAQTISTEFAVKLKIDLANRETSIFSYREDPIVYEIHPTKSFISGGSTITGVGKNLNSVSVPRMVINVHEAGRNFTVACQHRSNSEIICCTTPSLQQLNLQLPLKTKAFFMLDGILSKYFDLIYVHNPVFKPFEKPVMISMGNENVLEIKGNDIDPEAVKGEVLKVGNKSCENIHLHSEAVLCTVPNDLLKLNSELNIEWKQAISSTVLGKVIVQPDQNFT
T2 sequence (P08581 27-515 limits assumed): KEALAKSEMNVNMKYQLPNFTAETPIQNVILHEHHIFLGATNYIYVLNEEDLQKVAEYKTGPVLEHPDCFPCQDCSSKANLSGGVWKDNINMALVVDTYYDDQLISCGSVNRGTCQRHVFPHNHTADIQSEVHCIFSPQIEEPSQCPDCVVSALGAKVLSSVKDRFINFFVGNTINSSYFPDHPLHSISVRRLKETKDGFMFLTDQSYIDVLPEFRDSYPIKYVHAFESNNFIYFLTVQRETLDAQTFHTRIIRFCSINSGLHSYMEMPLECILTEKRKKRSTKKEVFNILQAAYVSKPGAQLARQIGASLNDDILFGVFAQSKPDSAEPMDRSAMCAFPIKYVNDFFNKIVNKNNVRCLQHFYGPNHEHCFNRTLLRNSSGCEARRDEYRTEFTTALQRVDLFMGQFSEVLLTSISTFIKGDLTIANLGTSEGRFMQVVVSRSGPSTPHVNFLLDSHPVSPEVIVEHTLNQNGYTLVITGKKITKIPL

Molecule: CCC1=C[C@@H]2CN(C1)Cc1c([nH]c3ccccc13)[C@@](C(=O)OC)(c1cc3c(cc1OC)N(C)[C@H]1[C@@](O)(C(=O)OC)[C@H](OC(C)=O)[C@]4(CC)C=CCN5CC[C@]31[C@@H]54)C2 [Navelbine®, reference compound]
reduction of average tumor volume (NCI-H441 [1]): 76%

maximum of HGF binding displacement (HGF-cMet): 100%
binding to SEMA domain (SEMA domain): did not bind
B1: 227H1: murine anti-c-Met monoclonal antibody, IgG1 kappa; heavy chain SEQ ID No. 19, light chain SEQ ID No. 22 (antibody, V domains shown)
VH: EVQLQQSGPELVKPGASMKISCKASGYSFTDYTLNWVKQSHGKTLEWIGLINPYNGGTTYNQKFKGKATLTVDKSSSTAYMELLSLTSEDSAVYYCAREEITKDFDFWGQGTTLTVSS
VL: GIVLTQSPASLAVSLGQRATISCRVSESIDTYGNSFIHWYQQKPGQPPKLLIYRASNLESGIPARFSGSGSRTDFTLTINPVEADDSATYYCQQSNEDPFTFGSGTKLEMK
modifications: mus musculus
inhibition of dimerization (c-Met): 52%
agonist effect on invasion, added alone (A549 cells): No agonist effect
agonist activity on cell proliferation (BxPC3 cells): without any agonist activity
inhibition of in vivo growth of NCI-H441 (NCI-H441 [2]): inhibited significantly

Kon1 × 10^−6 [1/M · s] [3]: 2.04 ± 0.01 × 10^−6 [1/M · s]
B2: 224G11 Fab: Fab fragment of mAb 224G11 generated by papain cleavage (antibody, V domains shown)
VH: EVQLQQSGPELVKPGASVKISCKTSGYIFTAYTMHWVRQSLGESLDWIGGIKPNNGLANYNQKFKGKATLTVDKSSSTAYMDLRSLTSEDSAVYYCARSEITTEFDYWGQGTALTVSS
VL: B1 VL with G1D, V25A, I29V, T31S, G33A, I37M, S87V, N96K, F100L

Kon1 × 10^−6 [1/M · s] [3]: 1.13 ± 0.01 × 10^−6 [1/M · s]
B3: 11E1 Fab: Fab fragment of mAb 11E1 generated by papain cleavage (antibody, V domains shown)
VH: QVQLQQSGAELAKPGASVKMSCKASGYTFTSYWMNWVKQRPGQGLEWIGYINPTTGSTDYNQKLKDKATLTADKSSNTAYMQLSSLTSEDSAVYYCAIGGYGSWFAYWGQGTLVTVSA
VL: QIVLTQSPAIMSASPGEKVTLTCSASSSVSSTYLYWYQQKPGSSPKLWIYTTSILASGVPARFSGSGSGTSYSLTISSMETEDAASYFCHQWSSYPFTFGSGTKLDIK
